Data: US20200306373A1 (Hoffmann-La Roche, published 2020)

Columns and labels:
[1] = biological target: T1, human fibroblast activating protein (huFAP) (human, UniProt Q12884 1-760); assay: flow cytometry on NIH/3T3-huFAP clone 19 cells
T1 construct: Expressed on NIH/3T3-huFAP clone 19 cells; also called human FAP; hFAP
Experimental: (§1) This cell line was generated by the transfection of the mouse embryonic fibroblast NIH/3T3 cell line (ATCC CRL-1658) with the expression vector pETR4921 to express huFAP under […] Puromycin selection.
(§2) The staining was fixed for 20 min at 4° C. in the dark, using 75 μl of 1% PFA in FACS buffer per well. Fluorescence was analyzed by FACS using a FACS Fortessa (Software FACS Diva). Binding curves were obtained using GraphPadPrism6 and are shown in FIGS. 6A-6C and 7A-7B, respectively.

human ICOS [2] = biological target: T2, human ICOS (human, UniProt Q9Y6W8 21-199); assay: cell-based or functional assay
T2 sequence: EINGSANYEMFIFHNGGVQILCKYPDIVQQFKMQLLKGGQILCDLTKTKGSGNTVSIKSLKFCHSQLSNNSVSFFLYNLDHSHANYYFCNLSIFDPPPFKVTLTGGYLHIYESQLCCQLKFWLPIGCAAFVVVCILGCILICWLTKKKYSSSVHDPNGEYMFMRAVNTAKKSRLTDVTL

human ICOS [3] = biological target: T2, human ICOS; assay: flow cytometry, activated human PBMCs, ICOS on CD8+ T cells
human ICOS [4] = biological target: T2, human ICOS; assay: flow cytometry, activated human PBMCs, ICOS on CD4+ T cells
[5] = biological target: T1, human fibroblast activating protein …; assay: flow cytometry on NIH/3T3-huFAP clone 19 cells (human FAP), PE anti-human secondary, median fluorescence intensity
Experimental: as §1, §2

human CEA = biological target: T3, human CEA (human, UniProt P06731 35-685); assay: flow cytometry on MKN45 cells (human CEA), Alexa Fluor 647 anti-human Fc secondary, frequency of A647+ cells
T3 construct: Endogenous CEA on MKN45 human gastric adenocarcinoma cells; also called Carcinoembryonic antigen; CEACAM5
T3 sequence: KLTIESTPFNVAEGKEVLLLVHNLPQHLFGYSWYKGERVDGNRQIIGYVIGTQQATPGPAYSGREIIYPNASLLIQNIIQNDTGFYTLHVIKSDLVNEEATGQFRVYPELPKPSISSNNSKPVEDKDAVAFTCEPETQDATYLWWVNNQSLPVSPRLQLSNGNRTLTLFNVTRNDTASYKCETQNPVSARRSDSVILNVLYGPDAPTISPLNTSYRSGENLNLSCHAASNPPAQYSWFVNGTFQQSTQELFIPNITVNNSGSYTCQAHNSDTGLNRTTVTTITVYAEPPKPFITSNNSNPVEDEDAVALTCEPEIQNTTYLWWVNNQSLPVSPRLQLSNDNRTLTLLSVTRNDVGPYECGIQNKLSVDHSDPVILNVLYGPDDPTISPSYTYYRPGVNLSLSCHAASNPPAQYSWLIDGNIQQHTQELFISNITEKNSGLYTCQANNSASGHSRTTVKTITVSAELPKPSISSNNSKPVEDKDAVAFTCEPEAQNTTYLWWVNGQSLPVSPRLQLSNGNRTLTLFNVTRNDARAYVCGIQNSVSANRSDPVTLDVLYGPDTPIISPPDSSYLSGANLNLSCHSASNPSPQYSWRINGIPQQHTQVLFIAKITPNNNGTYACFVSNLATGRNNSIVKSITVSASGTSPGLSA
Experimental: Briefly, human PBMCs, isolated from either Buffy Coats or fresh blood from healthy human donors (as described in Example 5.1) were incubated in a humidified incubator at 37° C. for 48 hours in RPMI1640 medium including […] PHA-L (Roche, #11249738001) and 100 units/ml recombinant human IL-2 (“Proleukin”, Novartis) at a cell density of 1 million cells per ml.
At the day of the assay, pre-activated PBMCs cells were harvested, washed with PBS, and 0.2 million cells in FACS buffer (PBS with 0.1% BSA) were plated per well of a 96-round bottom-well plate. Likewise, adherent MKN45 tumor cells were detached using trypsin (Gibco, 25300-054), washed and 0.15 million cells were transferred into the 96-round bottom well-plate. […] Cells were washed with FACS buffer and the staining was fixed for 20 min at 4° C. in the dark, using 75 µl of 1% PFA in FACS buffer per well. Cells were washed again two times with FACS Buffer and re-suspended in FACS Buffer for analysis.
Fluorescence was analyzed by FACS using a FACS Fortessa (Software FACS Diva). Binding curves and EC₅₀ values were obtained using GraphPadPrism6.

[6] = biological target: T4, murine ICOS Fc(kih) Avi tag (murine, Avi tag, captured on a streptavidin chip); assay: SPR, Biacore T200, 25 C, murine ICOS Fc(kih) on streptavidin chip, antibody injected 1000-31.25 nM, 1:1 Langmuir
T4 construct: also called recombinant murine ICOS Fc(kih)
Experimental: Surface plasmon resonance experiments were performed on a Biacore T200 at 25° C. with HBS-EP as running buffer (0.01 M HEPES pH 7.4, 0.15 M NaCl, 0.005% (v/v) Surfactant P20 (GE Healthcare)).
The immobilization level was approximately 600 RU. […] The dissociation phase was monitored for 500 s and triggered by switching from the sample solution to HBS-EP. The chip surface was regenerated after every cycle using one injection of 10 mM Glycine pH 3.0 for 60 s.
The affinity constants were derived from the kinetic rate constants by fitting to a 1:1 Langmuir binding using the BIAeval software (GE Healthcare).

T4 sequence (chain, as listed by the source limits assumed, chain 1 of 2): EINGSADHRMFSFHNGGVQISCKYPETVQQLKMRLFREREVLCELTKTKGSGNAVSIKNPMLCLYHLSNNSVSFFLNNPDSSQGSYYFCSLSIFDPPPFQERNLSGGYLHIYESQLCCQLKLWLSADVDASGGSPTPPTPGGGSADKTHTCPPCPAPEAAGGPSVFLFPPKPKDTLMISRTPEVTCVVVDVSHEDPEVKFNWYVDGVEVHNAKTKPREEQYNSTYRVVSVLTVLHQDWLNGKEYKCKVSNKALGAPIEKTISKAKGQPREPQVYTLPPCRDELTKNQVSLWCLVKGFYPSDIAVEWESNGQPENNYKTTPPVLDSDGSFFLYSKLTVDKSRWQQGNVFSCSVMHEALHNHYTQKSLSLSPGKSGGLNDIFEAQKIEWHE
T4 sequence (chain, as listed by the source limits assumed, chain 2 of 2): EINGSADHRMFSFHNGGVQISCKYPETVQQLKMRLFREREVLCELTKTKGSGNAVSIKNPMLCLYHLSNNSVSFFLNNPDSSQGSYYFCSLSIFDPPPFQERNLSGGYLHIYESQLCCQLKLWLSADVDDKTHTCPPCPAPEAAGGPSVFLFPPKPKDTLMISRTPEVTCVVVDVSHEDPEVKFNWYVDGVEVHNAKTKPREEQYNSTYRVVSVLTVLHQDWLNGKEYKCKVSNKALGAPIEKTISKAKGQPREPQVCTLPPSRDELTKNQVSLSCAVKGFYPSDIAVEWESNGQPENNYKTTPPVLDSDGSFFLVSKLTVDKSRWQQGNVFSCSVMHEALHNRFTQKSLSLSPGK

B1: FAP-ICOS_1+1, huIgG1 P329G LALA, monovalent ICOS (JMAb136), monovalent FAP (4B9) (bispecific antibody)
heavy 1: not shown
light 1: DIQMTQSPSSVSASVGDRVTITCRASQGISRLLAWYQQKPGKAPKLLIYVASSLQSGVPSRFSGSGSGTDFTLTISSLQPEDFATYYCQQANSFPWTFGQGTKVEIKRTVAAPSVFIFPPSDRKLKSGTASVVCLLNNFYPREAKVQWKVDNALQSGNSQESVTEQDSKDSTYSLSSTLTLSKADYEKHKVYACEVTHQGLSSPVTKSFNRGEC
heavy 2: EIVLTQSPGTLSLSPGERATLSCRASQSVTSSYLAWYQQKPGQAPRLLINVGSRRATGIPDRFSGSGSGTDFTLTISRLEPEDFAVYYCQQGIMLPPTFGQGTKVEIKSSASTKGPSVFPLAPSSKSTSGGTAALGCLVKDYFPEPVTVSWNSGALTSGVHTFPAVLQSSGLYSLSSVVTVPSSSLGTQTYICNVNHKPSNTKVDKKVEPKSCDKTHTCPPCPAPEAAGGPSVFLFPPKPKDTLMISRTPEVTCVVVDVSHEDPEVKFNWYVDGVEVHNAKTKPREEQYNSTYRVVSVLTVLHQDWLNGKEYKCKVSNKALGAPIEKTISKAKGQPREPQVCTLPPSRDELTKNQVSLSCAVKGFYPSDIAVEWESNGQPENNYKTTPPVLDSDGSFFLVSKLTVDKSRWQQGNVFSCSVMHEALHNHYTQKSLSLSP
light 2: EVQLLESGGGLVQPGGSLRLSCAASGFTFSSYAMSWVRQAPGKGLEWVSAIIGSGASTYYADSVKGRFTISRDNSKNTLYLQMNSLRAEDTAVYYCAKGWFGGFNYWGQGTLVTVSSASVAAPSVFIFPPSDEQLKSGTASVVCLLNNFYPREAKVQWKVDNALQSGNSQESVTEQDSKDSTYSLSSTLTLSKADYEKHKVYACEVTHQGLSSPVTKSFNRGEC
notes: also called ICOS-FAP 1+1; ICOS(JMab136)-FAP(4B9) 1 + 1
EC50 [1]: 2.98 nM | Fold increase vs TCB only at 200 pM CEA-ICOS (% CD69^+CD4^+), Donor 1 (D1) (human ICOS [2]): 2.5 fold | Fold increase vs TCB only at 200 pM CEA-ICOS (% CD69^+CD4^+), Donor 2 (D2) (human ICOS [2]): 1.5 fold | Fold increase vs TCB only at 1000 pM CEA-ICOS (% CD69^+CD4^+), Donor 1 (D1) (human ICOS [2]): 2.65 fold | Fold increase vs TCB only at 1000 pM CEA-ICOS (% CD69^+CD4^+), Donor 2 (D2) (human ICOS [2]): 1.68 fold | EC50 (human ICOS [3]): 50.7 nM | EC50 (human ICOS [4]): 34.9 nM | EC50 (read off the curve) [5]: ~3 nM

B2: ICOS(JMab136)-CEA(MEDI-565) 1+1, CEA-ICOS_1+1, huIgG1 P329G LALA, monovalent ICOS (JMAb136), monovalent CEA (MEDI-565) (bispecific antibody)
heavy 1: not shown
light 1: B1 light 1
heavy 2: not shown
light 2: EVQLVESGGGLVQPGRSLRLSCAASGFTVSSYWMHWVRQAPGKGLEWVGFIRNKANGGTTEYAASVKGRFTISRDDSKNTLYLQMNSLRAEDTAVYYCARDRGLRFYFDYWGQGTTVTVSSASVAAPSVFIFPPSDEQLKSGTASVVCLLNNFYPREAKVQWKVDNALQSGNSQESVTEQDSKDSTYSLSSTLTLSKADYEKHKVYACEVTHQGLSSPVTKSFNRGEC
notes: Human IgG1 P329G LALA, knob-into-hole; also called CEA(MEDI565)-ICOS(JMAb136)_1 + 1
EC50 (read off the curve) (human CEA): ~0.05 nM | Fold increase vs TCB only at 200 pM CEA-ICOS (% CD69^+CD4^+), Donor 1 (D1) (human ICOS [2]): 4.99 fold | Fold increase vs TCB only at 200 pM CEA-ICOS (% CD69^+CD4^+), Donor 2 (D2) (human ICOS [2]): 2.91 fold | Fold increase vs TCB only at 1000 pM CEA-ICOS (% CD69^+CD4^+), Donor 1 (D1) (human ICOS [2]): 5.95 fold | Fold increase vs TCB only at 1000 pM CEA-ICOS (% CD69^+CD4^+), Donor 2 (D2) (human ICOS [2]): 2.47 fold

B3: ICOS(JMab136)-CEA(MEDI-565) 2+1, CEA-ICOS_2+1 huIgG1 P329G LALA, bivalent ICOS (JMAb136), monovalent CEA (MEDI-565) (bispecific antibody)
heavy 1: not shown
heavy 2: not shown
light: B1 light 1
notes: Human IgG1 P329G LALA, knob-into-hole; also called CEA(MEDI565)-ICOS(JMAb136)_2 + 1
EC50 (read off the curve) (human CEA): ~0.5 nM | Fold increase vs TCB only at 200 pM CEA-ICOS (% CD69^+CD4^+), Donor 1 (D1) (human ICOS [2]): 5.17 fold | Fold increase vs TCB only at 200 pM CEA-ICOS (% CD69^+CD4^+), Donor 2 (D2) (human ICOS [2]): 2.86 fold | Fold increase vs TCB only at 1000 pM CEA-ICOS (% CD69^+CD4^+), Donor 1 (D1) (human ICOS [2]): 5.52 fold | Fold increase vs TCB only at 1000 pM CEA-ICOS (% CD69^+CD4^+), Donor 2 (D2) (human ICOS [2]): 1.99 fold

B4: FAP-ICOS_2+1, huIgG1 P329G LALA, bivalent ICOS (JMAb136), monovalent FAP (4B9) (bispecific antibody)
heavy 1: not shown
heavy 2: not shown
light: B1 light 1
notes: Human IgG1 P329G LALA, knob-into-hole; also called ICOS-FAP 2+1; ICOS(JMab136)-FAP(4B9) 2 + 1
EC50 [1]: 5.19 nM | Fold increase vs TCB only at 200 pM CEA-ICOS (% CD69^+CD4^+), Donor 1 (D1) (human ICOS [2]): 2.66 fold | Fold increase vs TCB only at 200 pM CEA-ICOS (% CD69^+CD4^+), Donor 2 (D2) (human ICOS [2]): 1.38 fold | Fold increase vs TCB only at 1000 pM CEA-ICOS (% CD69^+CD4^+), Donor 1 (D1) (human ICOS [2]): 2.66 fold | Fold increase vs TCB only at 1000 pM CEA-ICOS (% CD69^+CD4^+), Donor 2 (D2) (human ICOS [2]): 1.96 fold | EC50 (human ICOS [3]): 14.4 nM | EC50 (human ICOS [4]): 10.7 nM

B5: DP47-ICOS_1+1, huIgG1 P329G LALA, monovalent ICOS (JMAb136), monovalent DP47 (bispecific antibody)
heavy 1: not shown
light 1: B1 light 1
heavy 2: not shown
light 2: not shown
notes: Untargeted control, human IgG1 P329G LALA; also called ICOS-DP47 control molecule; untargeted DP47-ICOS
EC50 (human ICOS [3]): 25.7 nM | EC50 (human ICOS [4]): 19.9 nM | binding result [5]: no binding (tested: about 120000 pM)

B6: DP47-ICOS_2+1, huIgG1 P329G LALA, bivalent ICOS (JMAb136), monovalent DP47 (bispecific antibody)
heavy 1: not shown
heavy 2: not shown
light: B1 light 1
notes: Untargeted control, human IgG1 P329G LALA, bivalent for ICOS; also called ICOS-DP47 control molecule; untargeted DP47-ICOS
EC50 (human ICOS [3]): 12.4 nM | EC50 (human ICOS [4]): 9.99 nM | binding result [5]: no binding (tested: about 120000 pM)

B7: anti-ICOS 16E09 IgG1 P329G LALA antibody (antibody, V domains shown)
VH: EVQLVQSGAEVKKPGESLKISCKGSGYSFTSYWIGWVRQMPGKGLEWMGIIYPGDSDTRYSPSFQGQVTISADKSISTAYLQWSSLKASDTAMYYCARSSGPYGLYLDYWGQGTLVTVSS
VL: not shown
notes: also called phage-derived ICOS-specific antibody 16E09
Kd [6]: 180 nM | koff [6]: 0.0192 s⁻¹ | kon [6]: 144000 M⁻¹ s⁻¹

B8: FAP-ICOS_1+1_HT, huIgG1 P329G LALA, monovalent ICOS (JMAb136), monovalent FAP (4B9) c-terminal fused of the heavy chain C region (bispecific antibody)
heavy 1: not shown
heavy 2: DKTHTCPPCPAPEAAGGPSVFLFPPKPKDTLMISRTPEVTCVVVDVSHEDPEVKFNWYVDGVEVHNAKTKPREEQYNSTYRVVSVLTVLHQDWLNGKEYKCKVSNKALGAPIEKTISKAKGQPREPQVCTLPPSRDELTKNQVSLSCAVKGFYPSDIAVEWESNGQPENNYKTTPPVLDSDGSFFLVSKLTVDKSRWQQGNVFSCSVMHEALHNHYTQKSLSLSPGGGGGSGGGGSGGGGSGGGGSEIVLTQSPGTLSLSPGERATLSCRASQSVTSSYLAWYQQKPGQAPRLLINVGSRRATGIPDRFSGSGSGTDFTLTISRLEPEDFAVYYCQQGIMLPPTFGQGTKVEIK
light: B1 light 1
notes: Human IgG1 P329G LALA, knob-into-hole; 4B9 VH and VL fused to the C-termini of the two Fc chains; also called ICOS-FAP 1+1 HT; 1+1 head-to-tail
EC50 [1]: 6.73 nM | EC50 (human ICOS [3]): 56.4 nM | EC50 (human ICOS [4]): 42.6 nM
